Data from patent US20220048991A1 (BIOND BIOLOGICS, published 2022).
Changes are numbered by the printed parent chain. Names and notes keep the numbering of the source. Each block holds one molecule with its values, some of them ahead of it.

Legend:
[1] = molecular target: T1, recombinant ILT2 (human) (human, UniProt Q8NHL6 24-461); assay: binding ELISA, hILT2-Fc; positive control is GHI/75 by paragraph 244
T1 construct: also called recombinant ILT2 peptide; ILT2 protein

[2] = molecular target: T2, PIRB (UniProt P97484 25-642, limits assumed); assay: binding ELISA, column PIRB; negative control
T2 sequence (looked up): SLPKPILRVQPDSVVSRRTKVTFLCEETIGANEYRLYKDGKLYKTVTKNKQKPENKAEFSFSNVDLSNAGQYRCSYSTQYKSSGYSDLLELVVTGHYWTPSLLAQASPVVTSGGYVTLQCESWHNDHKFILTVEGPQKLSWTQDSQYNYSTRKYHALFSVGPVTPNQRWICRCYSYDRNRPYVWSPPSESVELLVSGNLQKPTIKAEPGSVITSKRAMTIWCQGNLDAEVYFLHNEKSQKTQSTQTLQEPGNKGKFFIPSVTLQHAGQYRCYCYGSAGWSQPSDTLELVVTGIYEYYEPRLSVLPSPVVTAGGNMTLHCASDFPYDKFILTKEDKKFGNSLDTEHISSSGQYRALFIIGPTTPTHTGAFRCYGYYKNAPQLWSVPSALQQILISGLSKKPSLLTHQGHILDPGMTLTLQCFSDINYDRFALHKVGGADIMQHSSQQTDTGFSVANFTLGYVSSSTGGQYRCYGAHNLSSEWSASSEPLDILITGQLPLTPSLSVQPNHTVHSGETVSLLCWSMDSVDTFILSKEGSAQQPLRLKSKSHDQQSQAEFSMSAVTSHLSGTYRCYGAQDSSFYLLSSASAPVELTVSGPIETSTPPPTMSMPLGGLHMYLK

[3] = molecular target: T1, recombinant ILT2 (human); assay: binding ELISA, hILT2-Fc; negative control
[4] = molecular target: T3, ILT6 (UniProt Q8N6C8 24-439, limits assumed); assay: binding ELISA, column hILT6-His; negative control
T3 sequence (Q8N6C8 24-439 limits assumed): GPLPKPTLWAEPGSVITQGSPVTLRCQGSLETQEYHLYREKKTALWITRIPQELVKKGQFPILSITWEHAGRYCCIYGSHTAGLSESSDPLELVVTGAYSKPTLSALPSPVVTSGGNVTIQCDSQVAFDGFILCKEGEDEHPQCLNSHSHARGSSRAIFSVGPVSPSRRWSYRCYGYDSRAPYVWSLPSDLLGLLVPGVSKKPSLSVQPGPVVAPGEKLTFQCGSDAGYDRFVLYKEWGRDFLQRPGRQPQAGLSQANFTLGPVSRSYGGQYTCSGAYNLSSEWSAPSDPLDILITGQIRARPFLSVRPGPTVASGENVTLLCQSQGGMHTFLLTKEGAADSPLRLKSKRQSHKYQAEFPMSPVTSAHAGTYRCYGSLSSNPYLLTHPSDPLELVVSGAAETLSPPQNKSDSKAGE

[5] = molecular target: T4, LILRA1 (UniProt O75019 17-461, limits assumed); assay: binding ELISA, column hLILRA1-His; negative control
T4 sequence (O75019 17-461 limits assumed): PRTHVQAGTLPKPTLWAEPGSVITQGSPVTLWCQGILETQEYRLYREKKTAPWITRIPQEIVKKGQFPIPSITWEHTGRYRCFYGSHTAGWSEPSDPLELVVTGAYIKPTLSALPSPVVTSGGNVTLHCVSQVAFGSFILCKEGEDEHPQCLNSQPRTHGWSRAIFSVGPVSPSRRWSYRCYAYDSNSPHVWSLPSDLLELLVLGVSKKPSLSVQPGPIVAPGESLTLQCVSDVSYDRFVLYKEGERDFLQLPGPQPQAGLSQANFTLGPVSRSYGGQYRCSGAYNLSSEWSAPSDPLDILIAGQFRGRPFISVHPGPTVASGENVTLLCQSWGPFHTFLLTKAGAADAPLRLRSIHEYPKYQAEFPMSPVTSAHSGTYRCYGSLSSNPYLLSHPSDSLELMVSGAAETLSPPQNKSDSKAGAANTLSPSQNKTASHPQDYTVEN

[6] = molecular target: T2, PIRB; assay: binding ELISA, column PIRB
[7] = molecular target: T1, recombinant ILT2 (human); assay: binding ELISA, hILT2-Fc
[8] = molecular target: T3, ILT6; assay: binding ELISA, column hILT6-His
[9] = molecular target: T4, LILRA1; assay: binding ELISA, column hLILRA1-His
[10] = molecular target: T5, biotinylated recombinant human ILT2-Fc (human, UniProt Q8NHL6 24-458, limits assumed, conjugated with biotin (sites not given)); assay: flow cytometry blocking assay: ILT2-biotin binding to cells expressing HLA-G [left panel]
T5 construct: Bought (Sino Biologics); the order of the parts is therefore uncertain; also called ILT2-biotin; biotinylated ILT2; not shown: Fc portion of human IgG1
T5 sequence (Q8NHL6 24-458 limits assumed): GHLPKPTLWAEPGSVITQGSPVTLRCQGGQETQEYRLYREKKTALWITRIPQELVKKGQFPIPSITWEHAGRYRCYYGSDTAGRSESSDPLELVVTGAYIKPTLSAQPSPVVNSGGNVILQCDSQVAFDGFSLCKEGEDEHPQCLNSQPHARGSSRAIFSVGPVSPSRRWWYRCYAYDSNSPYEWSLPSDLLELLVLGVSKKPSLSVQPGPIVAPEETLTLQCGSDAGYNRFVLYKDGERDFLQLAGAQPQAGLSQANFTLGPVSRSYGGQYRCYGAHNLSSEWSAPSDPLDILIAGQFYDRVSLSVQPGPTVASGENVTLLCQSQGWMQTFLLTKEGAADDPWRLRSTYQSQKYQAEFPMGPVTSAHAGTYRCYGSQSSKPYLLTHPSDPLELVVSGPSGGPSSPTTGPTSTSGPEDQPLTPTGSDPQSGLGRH
Protocol: (§1) Flow cytometry blocking assay—Recombinant human ILT2 protein fused with the Fc portion of human IgG1 at the N terminal was conjugated with biotin (Innova bioscience). A total of 5×10⁵ A375/HLA-G1 cells were incubated in a volume of 100 μL in the presence of anti-ILT2 clone #1 or isotype matched control mAb and ILT2-Fc conjugated with biotin (10 μg/mL) for 30 minutes at room temperature. After several washing steps, streptavidin-PE was added at a final concentration of 0.2 μg/mL and incubated for 30 min on ice followed by FACS analysis.
(§2) The ability of the generated anti-ILT2 antibodies to block the interaction between HLA-G and ILT2 was tested using four different assays. First, a blocking flow cytometry assay was performed. HLA-G transfected A375 cells were incubated with biotinylated ILT2 in the presence of the antibodies of the present disclosure and a positive control antibody. The commercially available anti-ILT2 antibody GHI/75 (BioLegend, Cat. No. 333704) was used as the positive control. The binding of ILT2-biotin to the cells was determined using Streptavidin-PE by flow cytometry analysis (FIG. 8A). The percent of blocking was determined by normalizing to a negative control (ILT2 binding in the presence of control IgG). […] The percentage of blocking was calculated at various concentrations of antibody (FIG. 8C).

[11] = molecular target: T6, human ILT2 fused to mouse CD3 zeta chain, on BW cells (human; mouse); assay: flow cytometry on BW cells transfected with human ILT2; fold above background (FAB) [left panel]
T6 construct: domain: trans-membrane and cytoplasmic residues; also called BW-ILT2; BW/ILT2z
T6 sequence (P24161 other isoform, or with tags, fused parts or gaps limits assumed): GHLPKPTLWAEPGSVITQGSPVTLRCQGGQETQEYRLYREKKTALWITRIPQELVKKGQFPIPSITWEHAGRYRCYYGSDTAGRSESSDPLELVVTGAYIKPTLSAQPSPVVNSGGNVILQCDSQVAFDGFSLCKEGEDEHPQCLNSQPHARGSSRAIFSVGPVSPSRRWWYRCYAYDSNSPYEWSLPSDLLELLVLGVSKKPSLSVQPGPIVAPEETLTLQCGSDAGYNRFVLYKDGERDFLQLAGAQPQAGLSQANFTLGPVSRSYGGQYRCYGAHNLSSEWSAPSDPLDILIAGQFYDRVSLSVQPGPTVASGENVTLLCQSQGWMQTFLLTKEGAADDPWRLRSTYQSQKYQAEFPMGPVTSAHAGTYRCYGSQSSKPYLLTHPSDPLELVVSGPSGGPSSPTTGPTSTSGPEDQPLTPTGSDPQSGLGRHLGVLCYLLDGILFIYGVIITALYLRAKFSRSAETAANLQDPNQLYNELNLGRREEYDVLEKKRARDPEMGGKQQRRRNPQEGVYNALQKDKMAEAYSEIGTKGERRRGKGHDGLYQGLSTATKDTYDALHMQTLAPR

[12] = molecular target: T6, human ILT2 fused to mouse CD3 zeta …; assay: cell-based or functional assay
[13] = molecular target: T1, recombinant ILT2 (human); assay: SPR (Biacore T200); KD relative to Control (chimeric 15G8)
Protocol: (§3) During grafting of the 15G8 CDRs, five heavy chains and four kappa light chains were generated. These chains were designated VH1-5 and Vk1-4. By combining each heavy chain with each light chain twenty different resultant antibodies are possible. All twenty possible antibodies were transiently expressed in HEK EBNA cells, and the supernatants were tested for binding to recombinant ILT2 peptide using a Biacore T200. The chimeric 15G8 antibody was used as control.

[14] = molecular target: T1, recombinant ILT2 (human); assay: SPR (Biacore T200), HEK EBNA supernatants on recombinant ILT2 peptide
Protocol: as §3

[15] = molecular target: T5, biotinylated recombinant human ILT2-Fc; assay: flow cytometry blocking assay: ILT2-biotin binding to cells expressing HLA-G
Protocol: as §1, §2

[16] = molecular target: T5, biotinylated recombinant human ILT2-Fc; assay: flow cytometry blocking assay: ILT2-biotin binding to cells expressing HLA-G [right panel]
Protocol: as §1, §2

[17] = molecular target: T5, biotinylated recombinant human ILT2-Fc; assay: B2M blocking ELISA: plate-bound recombinant human B2M-His, biotinylated ILT2-Fc at 20 µg/ml, titrated antibody, streptavidin-HRP; blocked ligand B2M
Protocol: To test whether 15G8 can block the interaction between ILT2 and B2M, a B2M blocking ELISA was performed. 96 well nickel plates were coated with recombinant human B2M-His tag (3 μg/ml; Sino Biologics, 11976-H08H) overnight. Biotinylated ILT2-Fc (20 μg/ml; Sino Biologics, 1614-H02H; Innova Biosciences, 370-0010) was added for 2 hours at 37° C., which allowed ILT2 binding to B2M, in the presence or absence of titrated BND-22 or an irrelevant antibody (anti human CD28, Biolegend, 302934) (Ab range of 80-0.1 μg/ml, ×3 fold). ILT2 binding to B2M was detected by HRP conjugated streptavidin (R&D Systems, DY998). The absorbance was measured using an ELISA Reader (Biotek Synergy-H1 plate reader).

T1 sequence (Q8NHL6 24-461 limits assumed): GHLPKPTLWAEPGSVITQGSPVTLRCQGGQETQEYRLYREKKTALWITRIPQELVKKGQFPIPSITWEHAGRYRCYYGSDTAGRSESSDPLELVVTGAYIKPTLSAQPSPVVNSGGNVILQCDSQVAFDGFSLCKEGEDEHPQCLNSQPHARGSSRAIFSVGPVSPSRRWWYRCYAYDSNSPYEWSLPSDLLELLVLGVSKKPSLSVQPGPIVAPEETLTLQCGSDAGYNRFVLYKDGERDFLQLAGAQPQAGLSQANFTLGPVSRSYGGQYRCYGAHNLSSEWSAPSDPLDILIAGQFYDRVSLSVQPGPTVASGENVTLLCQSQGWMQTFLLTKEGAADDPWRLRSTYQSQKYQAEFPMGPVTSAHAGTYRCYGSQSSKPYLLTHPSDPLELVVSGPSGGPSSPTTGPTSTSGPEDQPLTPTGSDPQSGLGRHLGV

ELISA (OD) [2]: 0.0575 OD
ELISA (OD) [3]: 0.05 OD
ELISA (OD) [4]: 0.071 OD
ELISA (OD) [5]: 0.13 OD
Molecule: Negative

IC50 (read off the curve) [10]: ~0.6 µg/mL
EC50 (read off the curve) [11]: ~0.6 µg/mL
B2: chimeric 19E3 (antibody, V domains shown)
VH: QVQLQQSGAELARPGASVKLSCKASGYTFTSYGISWVKQRTGQGLEWVGEIYPGSGNSYYNEKFKGKATLTADKSSSTAYMELRSLTSEDSAVYFCARSNDGYPDYWGQGTTLTVSS
VL: DIQMTQSSSYLSVSLGGRVTITCKASDHINNWLAWYQQKPGNAPRLLISGATSLETGVPSRFSGSGSGKDYTLSITSLQTEDVATYYCQQYWSTPWTFGGGTKLEIK
notes: Chimera of murine 19E3; also called chimeric murine 19E3

Relative KD [13]: 1
Kd [14]: 12.6 nM
koff [14]: 0.0102 s⁻¹
kon [14]: 808000 M⁻¹ s⁻¹
IC50 (read off the curve) [16]: ~0.2 µg/mL
B5: chimeric 15G8 antibody (antibody, V domains shown)
VH: DVQLQGSGPGLVKPSQSLSLTCSVTGYSITSGYYWNWIRQFPGNKLEWMGYISYDGSNNYNPSLKNRISITRDTSKNQFFLKLNSVTSEDTATYYCAHGYSYYYAMDCWGQGTSVTVSS
VL: DIQMTQTTSSLSASLGDRVTISCRTSQDISNYLNWYQQKPDGTVKLLISYTSRLHSGVPSRFSGSGSGTDYSLTISNLEQEDIATYFCQQGNTLPTFGSGTKLEIK
notes: Chimeric form of murine 15G8

More lines, now with the values behind:

Molecule: GHI/75 (commercial mouse anti-human ILT2 antibody, BioLegend Cat. No. 333704)
ELISA (OD) [1]: 2.45 OD

B1: 19E3 (hybridoma-derived, murine) (antibody, V domains shown)
VH: B2 VH
VL: B2 VL
ELISA (OD) [6]: 0.14 OD
binding result [6]: no binding
ELISA (OD) [7]: 2.61 OD
ELISA (OD) [8]: 0.13 OD
binding result [8]: no binding
ELISA (OD) [9]: 0.11 OD
binding result [9]: no binding

B3: 17F2 (hybridoma-derived, murine) (antibody, V domains shown)
VH: QVQLQQSDAELVKPGASVKISCKVSGYTFTDHTIHWMKQRPEQGLEWIGYIYPRDGSTKYNEKFKGKATLTADKSSSTAYMQLNSLTSEDSAVYFCARTWDYFDYWGQGTTLTVSS
VL: DIVLTQSPASLAVSLGQRATISCRASESVDSYGNSFMHWYQQKPGQPPKLLIYRASNLESGIPARFSGSGSRTDFTLTINPVEADDVATYYCQQSNEDPYTFGGGTKLEIK
ELISA (OD) [6]: 0.06 OD
binding result [6]: no binding
ELISA (OD) [7]: 1.89 OD
ELISA (OD) [8]: 0.06 OD
binding result [8]: no binding
ELISA (OD) [9]: 0.08 OD
binding result [9]: no binding

B4: 15G8-13 (humanized 15G8, VH1/Vk3, alanine variant A108) (antibody, human IgG4 S228P, kappa, V domains shown)
VH: B5 VH with Q16E, S17T, N44K, S69T, T71S, F80S, S88A, E89A, C108A
VL: DIQMTQSPSSLSASVGDRVTITCRTSQDISNYLNWYQQKPGKAVKLLISYTSRLHSGVPSRFSGSGSGTDYTLTISSLQPEDFATYYCQQGNTLPTFGQGTKLEIKR
notes: Humanized IgG4 (S228P, L235E), kappa; also called 15G8 humanized antibody; BND-22
IC50 (read off the curve) of Blocking (%) in the BW-ILT2 / A375-HLA-G mouse IL-2 reporter assay [12]: ~0.02 µg/mL
Relative KD [13]: 0.55
Kd [14]: 6.94 nM
koff [14]: 0.00905 s⁻¹
kon [14]: 1.3e+06 M⁻¹ s⁻¹
IC50 (read off the curve) [15]: ~0.3 µg/mL
IC50 (read off the curve) [16]: ~0.2 µg/mL
IC50 (read off the curve) [17]: ~8 µg/mL

B6: 15G8 (hybridoma-derived, murine) (antibody, V domains shown)
VH: B5 VH
VL: B5 VL
notes: also called 15G8 antibody
ELISA (OD) [6]: 0.08 OD
binding result [6]: no binding
ELISA (OD) [7]: 1.11 OD
ELISA (OD) [8]: 0.07 OD
binding result [8]: no binding
ELISA (OD) [9]: 0.14 OD
binding result [9]: no binding
